Among the data in PMC10221034 (2023) are response values, retold here.

The labels stand for the following.
B1: wild-type rTpiA (recombinant Streptococcus pneumoniae D39 triosephosphate isomerase) [Streptococcus pneumoniae D39] / human plasma plasminogen [human] (parent complex)
chain 1: SRKPFIAGNWKMNKNPEEAKAFVEAVASKLPSSDLVEAGIAAPALDLTTVLAVAKGSNLKVAAQNCYFENAGAFTGETSPQVLKEIGTDYVVIGHSERRDYFHETDEDINKKAKAIFANGMLPIICCGESLETYEAGKAAEFVGAQVSAALAGLTAEQVAASVIAYEPIWAIGTGKSASQDDAQKMCKVVRDVVAADFGQEVADKVRVQYGGSVKPENVASYMACPDVDGALVGGASLEAESFLALLDFVK
chain 2: EPLDDYVNTQGASLFSVTKKQLGAGSIEECAAKCEEDEEFTCRAFQYHSKEQQCVIMAENRKSSIIIRMRDVVLFEKKVYLSECKTGNGKNYRGTMSKTKNGITCQKWSSTSPHRPRFSPATHPSEGLEENYCRNPDNDPQGPWCYTTDPEKRYDYCDILECEEECMHCSGENYDGKISKTMSGLECQAWDSQSPHAHGYIPSKFPNKNLKKNYCRNPDRELRPWCFTTDPNKRWELCDIPRCTTPPPSSGPTYQCLKGTGENYRGNVAVTVSGHTCQHWSAQTPHTHNRTPENFPCKNLDENYCRNPDGKRAPWCHTTNSQVRWEYCKIPSCDSSPVSTEQLAPTAPPELTPVVQDCYHGDGQSYRGTSSTTTTGKKCQSWSSMTPHRHQKTPENYPNAGLTMNYCRNPDADKGPWCFTTDPSVRWEYCNLKKCSGTEASVVAPPPVVLLPDVETPSEEDCMFGNGKGYRGKRATTVTGTPCQDWAAQEPHRHSIFTPETNPRAGLEKNYCRNPDGDVGGPWCYTTNPRKLYDYCDVPQCAAPSFDCGKPQVEPKKCPGRVVGGCVAHPHSWPWQVSLRTRFGMHFCGGTLISPEWVLTAAHCLEKSPRPSSYKVILGAHQEVNLEPHVQEIEVSRLFLEPTRKDIALLKLSSPAVITDKVIPACLPSPNYVVADRTECFITGWGETQGTFGAGLLKEAQLPVIENKVCNRYEFLNGRVQSTELCAGHLAGGTDSCQGDSGGPLVCFEKDKYILQGVTSWGLGCARPNKPGVYVRVSRFVTWIEGVMRNN

Variants of B1 are the subject of the assay. The assay can be described thus: ELISA; rTpiA protein-coated microtiter plate; measured 60 min after substrate addition; n = 9; parent: 1.4; read off a plot. A general note: An ELISA detects its analyte on a solid surface through an enzyme-linked reagent.
For chain 1 K111A, the response was around 1.3 A405.
chain 1 K251A: the response is around 0.14 A405.
As to chain 1 K215A, the response was around 1.4 A405.
chain 1 K111A, chain 1 K112A, chain 1 K114A: the response is around 0.86 A405.
Next, chain 1 K84A: around 1.2 A405; chain 1 K3A: around 1.3 A405.
Next, chain 1 K185A: around 1.3 A405; chain 1 K29A: around 1.2 A405.
As for chain 1 K60A, the response was around 1.3 A405.
The figure for chain 1 K205A is around 1.3 A405.
For the variant chain 1 K14A, the response is around 1.3 A405.
In the case of chain 1 K176A, the response is around 1.3 A405.
The figure for chain 1 K138A is around 1.3 A405.
Next, chain 1 K20A: around 1.3 A405; chain 1 K188A: around 1.3 A405.
As to chain 1 K114A, the response was around 1.3 A405.
The figure for chain 1 K11A is around 1.3 A405; for chain 1 K112A it is around 1.2 A405.
Turning to chain 1 K55A, the response was around 1.3 A405.
